The text below walks through data of IntAct's records for PubMed 31515488.

The labels stand for the following.
B1: Migration and invasion-inhibitory protein (Homo sapiens), Q5JXC2 (parent)
chain: MVEAEELAQLRLLNLELLRQLWVGQDAVRRSVARAASESSLESSSSYNSETPSTPETSSTSLSTSCPRGRSSVWGPPDACRGDLRDVARSGVASLPPAKCQHQESLGRPRPHSAPSLGTSSLRDPEPSGRLGDPGPQEAQTPRSILAQQSKLSKPRVTFSEESAVPKRSWRLRPYLGYDWIAGSLDTSSSITSQPEAFFSKLQEFRETNKEECICSHPEPQLPGLRESSGSGVEEDHECVYCYRVNRRLFPVPVDPGTPCRLCRTPRDQQGPGTLAQPAHVRVSIPLSILEPPHRYHIHRRKSFDASDTLALPRHCLLGWDIFPPKSEKSSAPRNLDLWSSVSAEAQHQKLSGTSSPFHPASPMQMLPPTPTWSVPQVPRPHVPRQKP
partner: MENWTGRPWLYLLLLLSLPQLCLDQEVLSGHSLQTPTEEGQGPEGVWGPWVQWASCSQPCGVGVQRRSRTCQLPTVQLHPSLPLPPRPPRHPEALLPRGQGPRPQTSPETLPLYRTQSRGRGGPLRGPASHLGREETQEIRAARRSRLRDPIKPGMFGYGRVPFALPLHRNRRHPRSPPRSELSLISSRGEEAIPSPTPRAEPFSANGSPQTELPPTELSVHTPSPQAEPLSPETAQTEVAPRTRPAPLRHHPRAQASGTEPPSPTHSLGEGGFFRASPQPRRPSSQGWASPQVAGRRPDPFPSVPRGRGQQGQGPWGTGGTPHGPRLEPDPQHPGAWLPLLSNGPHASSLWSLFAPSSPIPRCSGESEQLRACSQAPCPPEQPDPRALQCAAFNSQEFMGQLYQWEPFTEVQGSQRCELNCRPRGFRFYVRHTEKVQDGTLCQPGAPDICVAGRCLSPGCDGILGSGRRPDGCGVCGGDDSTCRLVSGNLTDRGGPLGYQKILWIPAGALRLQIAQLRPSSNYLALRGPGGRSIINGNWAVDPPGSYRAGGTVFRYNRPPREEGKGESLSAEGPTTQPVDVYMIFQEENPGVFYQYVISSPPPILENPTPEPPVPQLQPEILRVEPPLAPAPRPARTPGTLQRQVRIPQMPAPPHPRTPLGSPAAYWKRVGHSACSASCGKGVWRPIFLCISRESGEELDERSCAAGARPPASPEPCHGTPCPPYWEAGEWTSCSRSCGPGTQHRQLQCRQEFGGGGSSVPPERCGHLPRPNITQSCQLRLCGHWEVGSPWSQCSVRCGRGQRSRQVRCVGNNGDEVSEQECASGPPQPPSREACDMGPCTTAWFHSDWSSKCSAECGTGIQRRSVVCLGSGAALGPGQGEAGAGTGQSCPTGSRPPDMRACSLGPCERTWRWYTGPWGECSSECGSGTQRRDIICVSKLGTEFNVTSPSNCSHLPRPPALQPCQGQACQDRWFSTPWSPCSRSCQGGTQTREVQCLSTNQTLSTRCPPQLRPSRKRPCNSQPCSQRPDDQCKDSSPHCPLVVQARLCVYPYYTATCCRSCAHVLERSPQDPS
B2: UPF0462 protein C4orf33 (Homo sapiens), Q8N1A6 (parent)
chain: MDFKIEHTWDGFPVKHEPVFIRLNPGDRGVMMDISAPFFRDPPAPLGEPGKPFNELWDYEVVEAFFLNDITEQYLEVELCPHGQHLVLLLSGRRNVWKQELPLSFRMSRGETKWEGKAYLPWSYFPPNVTKFNSFAIHGSKDKRSYEALYPVPQHELQQGQKPDFHCLEYFKSFNFNTLLGEEWKQPESDLWLIEKCDI
partner: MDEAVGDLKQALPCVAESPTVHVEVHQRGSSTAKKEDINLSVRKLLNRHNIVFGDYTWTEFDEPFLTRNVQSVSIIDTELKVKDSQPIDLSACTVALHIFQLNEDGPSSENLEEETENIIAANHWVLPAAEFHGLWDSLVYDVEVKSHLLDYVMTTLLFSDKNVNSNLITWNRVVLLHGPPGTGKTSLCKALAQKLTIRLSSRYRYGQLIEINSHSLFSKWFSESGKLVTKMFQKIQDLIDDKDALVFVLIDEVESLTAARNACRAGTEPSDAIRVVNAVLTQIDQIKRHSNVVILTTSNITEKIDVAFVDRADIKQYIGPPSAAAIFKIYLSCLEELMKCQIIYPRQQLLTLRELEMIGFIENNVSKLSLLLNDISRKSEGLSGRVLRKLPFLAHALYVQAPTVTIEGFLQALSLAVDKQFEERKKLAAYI
B3: Ribonuclease inhibitor (Homo sapiens), P13489 (parent)
chain: MSLDIQSLDIQCEELSDARWAELLPLLQQCQVVRLDDCGLTEARCKDISSALRVNPALAELNLRSNELGDVGVHCVLQGLQTPSCKIQKLSLQNCCLTGAGCGVLSSTLRTLPTLQELHLSDNLLGDAGLQLLCEGLLDPQCRLEKLQLEYCSLSAASCEPLASVLRAKPDFKELTVSNNDINEAGVRVLCQGLKDSPCQLEALKLESCGVTSDNCRDLCGIVASKASLRELALGSNKLGDVGMAELCPGLLHPSSRLRTLWIWECGITAKGCGDLCRVLRAKESLKELSLAGNELGDEGARLLCETLLEPGCQLESLWVKSCSFTAACCSHFSSVLAQNRFLLELQISNNRLEDAGVRELCQGLGQPGSVLRVLWLADCDVSDSSCSSLAATLLANHSLRELDLSNNCLGDAGILQLVESVRQPGCLLEQLVLYDIYWSEEMEDRLQALEKDKPSLRVIS
B4: Breast cancer metastasis-suppressor 1 (Homo sapiens), Q9HCU9 (parent)
chain: MPVQPPSKDTEEMEAEGDSAAEMNGEEEESEEERSGSQTESEEESSEMDDEDYERRRSECVSEMLDLEKQFSELKEKLFRERLSQLRLRLEEVGAERAPEYTEPLGGLQRSLKIRIQVAGIYKGFCLDVIRNKYECELQGAKQHLESEKLLLYDTLQGELQERIQRLEEDRQSLDLSSEWWDDKLHARGSSRSWDSLPPSKRKKAPLVSGPYIVYMLQEIDILEDWTAIKKARAAVSPQKRKSDGP
partner: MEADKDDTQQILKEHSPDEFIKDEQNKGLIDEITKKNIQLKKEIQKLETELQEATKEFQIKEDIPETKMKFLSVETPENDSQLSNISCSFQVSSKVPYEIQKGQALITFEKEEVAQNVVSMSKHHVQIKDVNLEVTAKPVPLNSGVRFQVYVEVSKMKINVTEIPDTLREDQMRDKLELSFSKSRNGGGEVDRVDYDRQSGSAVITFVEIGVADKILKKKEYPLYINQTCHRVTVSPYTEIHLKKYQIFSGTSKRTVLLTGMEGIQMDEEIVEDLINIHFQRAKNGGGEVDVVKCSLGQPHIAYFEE
B5: Notch homolog 2 N-terminal-like protein A (Homo sapiens), Q7Z3S9 (parent)
chain: MCVTYHNGTGYCKCPEGFLGEYCQHRDPCEKNRCQNGGTCVAQAMLGKATCRCASGFTGEDCQYSTSHPCFVSRPCLNGGTCHMLSRDTYECTCQVGFTGKECQWTDACLSHPCANGSTCTTVANQFSCKCLTGFTGQKCETDVNECDIPGHCQHGGTCLNLPGSYQCQCLQGFTGQYCDSLYVPCAPSPCVNGGTCRQTGDFTFECNCLPETVRRGTELWERDREVWNGKEHDEN
partner: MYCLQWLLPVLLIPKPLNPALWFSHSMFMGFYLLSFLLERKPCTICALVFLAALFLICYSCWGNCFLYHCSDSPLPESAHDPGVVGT

The variants in one assay derive from B1. The conditions noted are these: with atl4_human ADAMTSL4, Q6UY14.
For R171C, the “effect of a mutation on the interaction” value is “with no effect”.

Variants of B2 are the subject of the next assay. The conditions noted are these: with pch2_human TRIP13, Q15645.
As to H166R, the “effect of a mutation on the interaction” value is “with no effect”.

Variants of B3 are the subject of a further assay. The conditions noted are these: with sdcb1_human SDCBP.
As for R110C, the “effect of a mutation on the interaction” value was “disrupting interaction strength”.

Another assay covers variants of B4. The conditions noted are these: with nmi_human NMI.
Take S7G: the “effect of a mutation on the interaction” value is “with no effect”.

In a further assay the parent is B5. The conditions noted are these: with blcap_human BLCAP.
A115T: the “effect of a mutation on the interaction” value is “with no effect”. Consider R74Q, for which the “effect of a mutation on the interaction” value is listed as “with no effect”.
